Assay results reported in the supplement of paper PMC10724198.
± gives the standard deviation of the averaged measurements.

Tested on: Saccharomyces cerevisiae
Assay: protein stability index of tFT-peptide fusion (C-terminal peptide) (PSI (0-1 scale)); higher = more stable (slower turnover)
Details: genetic background: wild type; temperature: 30 C
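Note: PSI is a weighted mean of sequencing reads over stability bins, variants kept only with over 10 reads, mCherry proximal and sfGFP distal, peptide attached via GGGS linker.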

PPPPPPPPPLFP
protein stability index: 0.703 ± 0.022

PPPPPPPPPSFP
protein stability index: 0.65 ± 0.0086

PPPPPPPPRLTF
protein stability index: 0.698 ± 0.094

PPPPPPSPHPPL
protein stability index: 0.709 ± 0.01

PPPPPPSPPPPP
protein stability index: 0.713 ± 0.038

PPPPPPTPDPLA
protein stability index: 0.666 ± 0.048

PPPPPRPPPPAP
protein stability index: 0.5949 ± 0.0051

PPPPPRPPRLLS
protein stability index: 0.651 ± 0.1

PPPPPSPDSNLF
protein stability index: 0.733 ± 0.067

PPPPPSPLPPRP
protein stability index: 0.624 ± 0.045

PPPPPSPRALLP
protein stability index: 0.657 ± 0.028

PPPPPVLPPRPP
protein stability index: 0.713 ± 0.075

PPPPRHPAAAPP
protein stability index: 0.7668 ± 0.0075

PPPPRSPPLPRL
protein stability index: 0.743 ± 0.061

PPPPRSPSLLSP
protein stability index: 0.651 ± 0.059

PPPPTPPPHSPP
protein stability index: 0.656 ± 0.022

PPPPTPPPRTSP
protein stability index: 0.739 ± 0.063

PPPPVFPQPTPA
protein stability index: 0.6425 ± 0.0023

PPPPVPSLLLLS
protein stability index: 0.579 ± 0.019

PPPRFCSLPDHL
protein stability index: 0.636 ± 0.049

PPPRHSPRPPCI
protein stability index: 0.746 ± 0.11

PPPRLPPPPHAL
protein stability index: 0.795 ± 0.044

PPPRLPPPPPPP
protein stability index: 0.679 ± 0.048

PPPRPAPPSSHS
protein stability index: 0.641 ± 0.044

PPPRPHPTRLSY
protein stability index: 0.576 ± 0.054

PPPRPPPLPSPV
protein stability index: 0.616 ± 0.0093

PPPRPPPPLSHS
protein stability index: 0.632 ± 0.04

PPPRPRSLTCPA
protein stability index: 0.73 ± 0.14

PPPRPSPPPSRP
protein stability index: 0.684 ± 0.021

PPPRSPRSLPPL
protein stability index: 0.676 ± 0.017

PPPSCPLSPPRL
protein stability index: 0.668 ± 0.0046

PPPSLPFPPPHP
protein stability index: 0.6827 ± 0.0029

PPPSPALPLPPY
protein stability index: 0.712 ± 0.019

PPPSPFLPPRAP
protein stability index: 0.709 ± 0.051

PPPSPLLLFPPL
protein stability index: 0.645 ± 0.11

PPPSPPLPPFSL
protein stability index: 0.7056 ± 0.00078

PPPSPPLPPPLL
protein stability index: 0.696 ± 0.05

PPPSPPPPPLLP
protein stability index: 0.6508 ± 0.0016

PPPSPPPTSNPN
protein stability index: 0.742 ± 0.04

PPPSPPPYRLPP
protein stability index: 0.7 ± 0.016

PPPSPPSTTPPL
protein stability index: 0.672 ± 0.07

PPPSPPTAPAAP
protein stability index: 0.713 ± 0.038

PPPSPTPGHPQL
protein stability index: 0.718 ± 0.044

PPPTDSQTTWHP
protein stability index: 0.705 ± 0.018

PPPTPAPLLVPS
protein stability index: 0.598 ± 0.0091

PPPTPPPGTYSL
protein stability index: 0.579 ± 0.011

PPPTPPSPPRPH
protein stability index: 0.71 ± 0.068

PPPTRPSQAPHL
protein stability index: 0.645 ± 0.11

PPPTSPRSPVPI
protein stability index: 0.697 ± 0.021

PPPVPPTPFLTR
protein stability index: 0.744 ± 0.11

PPPVPTRPSPPP
protein stability index: 0.6737 ± 0.0047

PPPYDPPRPLPR
protein stability index: 0.7209 ± 0.0027

PPRAPPPPVPPL
protein stability index: 0.598 ± 0.03

PPRLAPPDPSLL
protein stability index: 0.673 ± 0.022

PPRLHPAPPPRT
protein stability index: 0.747 ± 0.033

PPRLPLSHPPEP
protein stability index: 0.634 ± 0.022

PPRLRSPTPFLL
protein stability index: 0.755 ± 0.027

PPRLSPAPPASP
protein stability index: 0.605 ± 0.009

PPRPPHPAPSPH
protein stability index: 0.638 ± 0.024

PPRPPPPPLRST
protein stability index: 0.758 ± 0.078

PPRPPSPLPLPP
protein stability index: 0.687 ± 0.016

PPRPSLLPRALF
protein stability index: 0.642 ± 0.041

PPRPSPPLSPLP
protein stability index: 0.72 ± 0.042

PPRVSLLSPPPP
protein stability index: 0.693 ± 0.034

PPRVSLLTPSPR
protein stability index: 0.853 ± 0.21

PPSASLAPFLSP
protein stability index: 0.722 ± 0.12

PPSLPLLPPHPP
protein stability index: 0.562 ± 0.011

PPSLRVVMVVGR
protein stability index: 0.611 ± 0.056

PPSMRQRKRSGP
protein stability index: 0.746 ± 0.028

PPSPAPLHPSTS
protein stability index: 0.661 ± 0.047

PPSPAPPPASPP
protein stability index: 0.651 ± 0.035

PPSPCRTHRLYI
protein stability index: 0.629 ± 0.022

PPSPLAPPLPPP
protein stability index: 0.709 ± 0.036

PPSPLPPAPPSP
protein stability index: 0.668 ± 0.029

PPSPPDLPPHPP
protein stability index: 0.618 ± 0.027

PPSPPPPPKIPP
protein stability index: 0.627 ± 0.055

PPSPPPPPPPTP
protein stability index: 0.699 ± 0.043

PPSPPPPPSSPP
protein stability index: 0.707 ± 0.071

PPSPPPPRPSFP
protein stability index: 0.713 ± 0.0096

PPSPPRPPTSFL
protein stability index: 0.608 ± 0.057

PPSPPSPPPPLP
protein stability index: 0.69 ± 0.012
